Measurements from PMC2898518.
Changes are numbered by the printed parent chain.

Assays:
p53 wild-type [1] = target: T1, p53 wild-type (UniProt P04637 1-393); assay: filter binding
p53 wild-type [2] = target: T1, p53 wild-type; assay: EMSA

T1 sequence (P04637 whole entry): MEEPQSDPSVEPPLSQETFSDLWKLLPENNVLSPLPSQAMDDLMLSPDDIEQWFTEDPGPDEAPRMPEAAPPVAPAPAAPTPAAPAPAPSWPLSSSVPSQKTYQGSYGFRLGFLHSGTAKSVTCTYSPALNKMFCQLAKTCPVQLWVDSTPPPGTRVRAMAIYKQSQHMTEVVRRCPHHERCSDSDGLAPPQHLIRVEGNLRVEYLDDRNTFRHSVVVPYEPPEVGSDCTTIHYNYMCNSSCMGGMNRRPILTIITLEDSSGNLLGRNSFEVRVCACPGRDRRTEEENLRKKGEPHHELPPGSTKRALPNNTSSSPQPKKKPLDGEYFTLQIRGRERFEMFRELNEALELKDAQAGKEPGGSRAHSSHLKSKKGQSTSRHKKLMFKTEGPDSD

B1: p21 site 32-mer (dsDNA)
DNA 1: TAGAGCGAACATGTCCCAACATGTTGGCGTCG
DNA 2: CGACGCCAACATGTTGGGACATGTTCGCTCTA
**Q.** B1 was tested. Which binding signal (p53 wild-type [1]) did it give?
**A.** 1 fold (reference)

B2: 66-bp circular wild-type GADD45 (dsDNA)
DNA 1: AGCTGATATCGAATTCTCGAGCAGAACATGTCTAAGCATGCTGGGCTCGAGAATTCCTGCAGCGCT
DNA 2: AGCGCTGCAGGAATTCTCGAGCCCAGCATGCTTAGACATGTTCTGCTCGAGAATTCGATATCAGCT
**Q.** With B2 as the binder, how does the binding signal (p53 wild-type [2]) read?
**A.** 1 fold (reference)

B3: 66-bp circular mutant GADD45 (dsDNA)
DNA 1: B2 DNA 1 with C27A, G30T, C37A, G40T
DNA 2: B2 DNA 2 with C27A, G30T, C37A, G40T
**Q.** Which binding signal (p53 wild-type [2]) does the source give for B3 here?
**A.** 1 fold (reference)
